Assay results from US9566335.

Assays:
[1] = molecular target: biotinylated peptide X-…(biotin), X = Q; test: phage ELISA, biotinylated peptide on neutravidin
[2] = molecular target: biotinylated peptide X-…(biotin), X = M; test: phage ELISA, biotinylated peptide on neutravidin
[3] = molecular target: biotinylated peptide X-…(biotin), X = G; test: phage ELISA, biotinylated peptide on neutravidin
[4] = molecular target: biotinylated peptide X-…(biotin), X = K; test: phage ELISA, biotinylated peptide on neutravidin
[5] = molecular target: biotinylated peptide X-…(biotin), X = P; test: phage ELISA, biotinylated peptide on neutravidin
[6] = molecular target: biotinylated peptide X-…(biotin), X = E; test: phage ELISA, biotinylated peptide on neutravidin
[7] = molecular target: biotinylated peptide X-…(biotin), X = D; test: phage ELISA, biotinylated peptide on neutravidin
[8] = molecular target: biotinylated peptide X-…(biotin), X = V; test: phage ELISA, biotinylated peptide on neutravidin
[9] = molecular target: biotinylated peptide X-…(biotin), X = R; test: phage ELISA, biotinylated peptide on neutravidin
[10] = molecular target: biotinylated peptide X-…(biotin), X = S; test: phage ELISA, biotinylated peptide on neutravidin
[11] = molecular target: biotinylated peptide X-…(biotin), X = I; test: phage ELISA, biotinylated peptide on neutravidin
[12] = molecular target: biotinylated peptide X-…(biotin), X = C; test: phage ELISA, biotinylated peptide on neutravidin
[13] = molecular target: biotinylated peptide X-…(biotin), X = H; test: phage ELISA, biotinylated peptide on neutravidin
[14] = molecular target: biotinylated peptide X-…(biotin), X = N; test: phage ELISA, biotinylated peptide on neutravidin
[15] = molecular target: biotinylated peptide X-…(biotin), X = T; test: phage ELISA, biotinylated peptide on neutravidin
[16] = molecular target: biotinylated peptide X-…(biotin), X = A; test: phage ELISA, biotinylated peptide on neutravidin
[17] = molecular target: biotinylated peptide X-…(biotin), X = Q; test: phage ELISA, biotinylated peptide on neutravidin; phage 10×
[18] = molecular target: biotinylated peptide X-…(biotin), X = M; test: as above
[19] = molecular target: biotinylated peptide X-…(biotin), X = G; test: as above
[20] = molecular target: biotinylated peptide X-…(biotin), X = K; test: as above
[21] = molecular target: biotinylated peptide X-…(biotin), X = P; test: as above
[22] = molecular target: biotinylated peptide X-…(biotin), X = E; test: as above
[23] = molecular target: biotinylated peptide X-…(biotin), X = D; test: as above
[24] = molecular target: biotinylated peptide X-…(biotin), X = V; test: as above
[25] = molecular target: biotinylated peptide X-…(biotin), X = R; test: as above
[26] = molecular target: biotinylated peptide X-…(biotin), X = S; test: as above
[27] = molecular target: biotinylated peptide X-…(biotin), X = I; test: as above
[28] = molecular target: biotinylated peptide X-…(biotin), X = C; test: as above
[29] = molecular target: biotinylated peptide X-…(biotin), X = H; test: as above
[30] = molecular target: biotinylated peptide X-…(biotin), X = N; test: as above
[31] = molecular target: biotinylated peptide X-…(biotin), X = T; test: as above
[32] = molecular target: biotinylated peptide X-…(biotin), X = A; test: as above

B1: Phage displayed wild-type E. coli ClpS (truncated wildtype ClpS polypeptide, FLAG-tagged, fused to phage coat protein p3) (protein)
chain: KPPSMYKVILVNDDYTPMEFVIDVLQKFFSYDVERATQLMLAVHYQGKAICGVFTAEVAETKVAMVNKYARENEHPLLCTLEKA
[1]
  phage ELISA signal (A450): -0.18
[2]
  phage ELISA signal (A450): -0.11
[3]
  phage ELISA signal (A450): -0.04
[4]
  phage ELISA signal (A450): 0.05
[5]
  phage ELISA signal (A450): -0.07
[6]
  phage ELISA signal (A450): -0.26
[7]
  phage ELISA signal (A450): -0.29
[8]
  phage ELISA signal (A450): -0.09
[9]
  phage ELISA signal (A450): 0.13
[10]
  phage ELISA signal (A450): -0.01
[11]
  phage ELISA signal (A450): -0.016
[12]
  phage ELISA signal (A450): -0.23
[13]
  phage ELISA signal (A450): -0.03
[14]
  phage ELISA signal (A450): -0.05
[15]
  phage ELISA signal (A450): 0.01
[16]
  phage ELISA signal (A450): -0.29
[17]
  phage ELISA signal (A450): -0.18
[18]
  phage ELISA signal (A450): -0.11
[19]
  phage ELISA signal (A450): -0.04
[20]
  phage ELISA signal (A450): 0.05
[21]
  phage ELISA signal (A450): -0.07
[22]
  phage ELISA signal (A450): -0.26
[23]
  phage ELISA signal (A450): -0.29
[24]
  phage ELISA signal (A450): -0.09
[25]
  phage ELISA signal (A450): 0.13
[26]
  phage ELISA signal (A450): -0.01
[27]
  phage ELISA signal (A450): -0.16
[28]
  phage ELISA signal (A450): -0.23
[29]
  phage ELISA signal (A450): -0.03
[30]
  phage ELISA signal (A450): -0.05
[31]
  phage ELISA signal (A450): 0.01
[32]
  phage ELISA signal (A450): -0.29
